Data: article PMC6321638

Target: L52A or F85A
Experiment: pull-down; GST-pulldown: purified His-SOUL (5 µM) and GST-ALG-2 (5 µM) with Glutathione Sepharose 4B in buffer B (100 mM Tris-HCl pH 7.5, 100 mM NaCl, 10% glycerol) with 20 µM CaCl2 (or various amounts of Ca2+), 30 min at 4 °C; SDS-PAGE, Coomassie

B1: His-SOUL^WT (wild-type SOUL fused to His-tag) (natural protein)
chain: MAEEPEPDLGVAEGSEDQALEMPSWKAPEDIDPQPGSYEIRHYGPAKWVSTCVESLDWDSAIQTGFTKLNGYIQGKNEKEMKIKLTAPVTSYVEPGSSPFSESTITISLYIPSEQQPDPPRPSESDVFIEDRAEMTVFVRSFDGFSSGQKNQEQLLTLANILREEGKVFNEKVFYTAGYSSPFQLLDRNNEVWLIQKNEPSVENK
binding relative to ALG-2^WT (percent): 80 to 90%
